Measurements reported in publication PMC4114688.
Read-outs that look alike come from different tables or passages of the source.

Assays:
Test in all cases: EMSA
[1] = target: T1, RBPMS isoform A (Homo sapiens, UniProt Q93062 1-196)
[2] = target: T1, RBPMS isoform A; remark: listed apart in the source
[3] = target: T2, RBPMS2 (UniProt Q6ZRY4 1-209)
[4] = target: T2, RBPMS2; remark: listed apart in the source
[5] = target: T1, RBPMS isoform A; remark: listed apart in the source
[6] = target: RBPMS 1-144 (Homo sapiens, UniProt Q93062 1-144)
[7] = target: RBPMS 1-100 (Homo sapiens, UniProt Q93062 1-100)

T2 sequence (Q6ZRY4 whole entry): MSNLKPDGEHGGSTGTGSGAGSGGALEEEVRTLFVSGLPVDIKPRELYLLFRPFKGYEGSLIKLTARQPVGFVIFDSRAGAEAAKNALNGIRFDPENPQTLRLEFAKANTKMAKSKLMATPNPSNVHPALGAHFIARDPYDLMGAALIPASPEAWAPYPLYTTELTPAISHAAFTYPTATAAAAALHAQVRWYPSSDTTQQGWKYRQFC

Row | Binder | binding result [1] | binding result [3] | further results
1 | UACUCACUCACUCUCCACGAG (ssRNA) [UBE2V1 or SRM 21-nt wt (a)] | binds | – | –
2 | ACACACACACACAC (ssRNA) [(AC)7] | – | – | binding result [2]: binds
3 | CAUCAUCAUCAUCAUCAU (ssRNA) [(CAU)6] | no binding | no binding | –
4 | AGGCACUUUCAACUUCACUCC (ssRNA) [ETF1 21-nt wt] | binds | – | binding result [4]: binds
5 | ACACACACACACACACAC (ssRNA) [(AC)9] | – | binds | binding result [5]: binds; binding result [6]: binds; binding result [7]: no binding
6 | CUCUCUCUCUCUCUCUCU (ssRNA) [(CU)9] | no binding | no binding | –
7 | UUUUUUUUUUUUUUUUUU (ssRNA) [U18] | no binding | – | –
8 | CCCUCACUCACCAAACACGUG (ssRNA) [UBE2V1 or SRM 21-nt wt (b)] | binds | – | –
9 | AGAGAGAGAGAGAGAGAG (ssRNA) [(AG)9] | no binding | – | –
10 | GCCGCCGCCGCCGCCGCC (ssRNA) [(GCC)6] | no binding | – | –
11 | GGCGGCGGCGGCGGCGGC (ssRNA) [(GGC)6] | no binding | – | –
12 | CACCACCACCACCACCAC (ssRNA) [(CAC)6] | binds | binds | –
13 | AAAAAAAAAAAAAAAAAA (ssRNA) [A18] | no binding | – | –
